Assay results reported in US20230250154A1 (CYTONICS, published 2023).

T1: ADAMTS5 (human, UniProt Q9UNA0 262-622, limits assumed)
T1 sequence (looked up): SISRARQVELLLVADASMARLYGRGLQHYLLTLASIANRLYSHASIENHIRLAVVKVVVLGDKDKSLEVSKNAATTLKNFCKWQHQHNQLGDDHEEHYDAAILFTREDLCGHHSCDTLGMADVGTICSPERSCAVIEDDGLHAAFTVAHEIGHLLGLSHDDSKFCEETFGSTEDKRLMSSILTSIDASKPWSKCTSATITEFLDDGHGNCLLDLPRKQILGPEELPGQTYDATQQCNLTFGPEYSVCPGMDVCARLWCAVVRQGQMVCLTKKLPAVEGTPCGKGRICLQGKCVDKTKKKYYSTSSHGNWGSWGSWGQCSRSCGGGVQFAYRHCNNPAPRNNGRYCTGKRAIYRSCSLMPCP

T2: MMP1 (human, UniProt P03956 100-469, limits assumed)
T2 sequence (looked up): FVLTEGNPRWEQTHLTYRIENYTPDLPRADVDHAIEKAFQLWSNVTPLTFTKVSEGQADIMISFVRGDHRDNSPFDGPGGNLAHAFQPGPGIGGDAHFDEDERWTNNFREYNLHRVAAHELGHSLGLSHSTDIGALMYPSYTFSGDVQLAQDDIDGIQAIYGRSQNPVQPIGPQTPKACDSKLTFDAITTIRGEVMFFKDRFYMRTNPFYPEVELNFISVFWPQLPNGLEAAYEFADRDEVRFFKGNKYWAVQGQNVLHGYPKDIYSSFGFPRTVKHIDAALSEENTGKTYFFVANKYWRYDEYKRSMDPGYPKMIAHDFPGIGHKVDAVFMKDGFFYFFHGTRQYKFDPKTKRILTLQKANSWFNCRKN

T3: MMP2 (human, UniProt P08253 110-660, limits assumed)
T3 sequence (looked up): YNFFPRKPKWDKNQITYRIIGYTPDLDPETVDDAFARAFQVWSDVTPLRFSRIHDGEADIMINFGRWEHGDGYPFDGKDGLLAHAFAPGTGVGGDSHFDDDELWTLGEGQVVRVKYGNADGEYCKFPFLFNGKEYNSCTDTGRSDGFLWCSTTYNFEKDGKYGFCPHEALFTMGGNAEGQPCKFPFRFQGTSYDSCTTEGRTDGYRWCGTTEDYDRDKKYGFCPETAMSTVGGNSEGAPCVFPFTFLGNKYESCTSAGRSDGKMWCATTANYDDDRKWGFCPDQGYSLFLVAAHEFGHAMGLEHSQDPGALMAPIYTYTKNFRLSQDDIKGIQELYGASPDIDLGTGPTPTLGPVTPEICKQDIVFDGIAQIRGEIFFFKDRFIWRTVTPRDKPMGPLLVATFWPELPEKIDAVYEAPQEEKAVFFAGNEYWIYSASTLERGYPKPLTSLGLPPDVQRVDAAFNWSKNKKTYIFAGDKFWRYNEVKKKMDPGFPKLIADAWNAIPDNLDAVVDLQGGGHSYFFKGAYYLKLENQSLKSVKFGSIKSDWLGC

T4: Cathepsin G (UniProt P08311 21-244)
T4 sequence (looked up): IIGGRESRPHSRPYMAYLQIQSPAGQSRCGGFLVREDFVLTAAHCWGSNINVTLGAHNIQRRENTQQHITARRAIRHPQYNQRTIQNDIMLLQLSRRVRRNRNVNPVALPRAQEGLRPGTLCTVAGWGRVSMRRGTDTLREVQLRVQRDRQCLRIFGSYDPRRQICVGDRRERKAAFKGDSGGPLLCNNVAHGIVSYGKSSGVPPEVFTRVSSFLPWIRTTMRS

T5: MMP7 (UniProt P09237 95-267, limits assumed)
T5 sequence (looked up): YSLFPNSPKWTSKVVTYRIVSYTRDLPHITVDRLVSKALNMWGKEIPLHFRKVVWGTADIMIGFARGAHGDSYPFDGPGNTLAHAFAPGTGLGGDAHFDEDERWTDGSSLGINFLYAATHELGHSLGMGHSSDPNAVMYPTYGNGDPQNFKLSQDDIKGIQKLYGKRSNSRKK


Columns and labels:
Test in all cases: cell-based or functional assay
[1] = molecular target: T1, ADAMTS5
[2] = molecular target: T2, MMP1
[3] = molecular target: MMP8 (human, UniProt P22894 101-467, limits assumed)
MMP8, sequence (P22894 101-467 limits assumed): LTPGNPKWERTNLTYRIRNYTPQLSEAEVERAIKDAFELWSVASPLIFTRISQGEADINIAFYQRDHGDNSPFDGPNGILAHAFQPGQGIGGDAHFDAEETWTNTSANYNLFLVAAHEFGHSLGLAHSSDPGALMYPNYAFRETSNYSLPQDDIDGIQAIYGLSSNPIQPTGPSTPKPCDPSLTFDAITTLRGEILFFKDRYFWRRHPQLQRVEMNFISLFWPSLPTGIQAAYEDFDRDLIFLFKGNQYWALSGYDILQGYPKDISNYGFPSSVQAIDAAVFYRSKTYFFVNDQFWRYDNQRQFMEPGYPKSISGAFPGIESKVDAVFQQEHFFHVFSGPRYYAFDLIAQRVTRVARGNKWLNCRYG

[4] = molecular target: MMP13 (human, UniProt P45452 104-471, limits assumed)
[5] = molecular target: T3, MMP2
[6] = molecular target: MMP9 (human, UniProt P14780 107-707, limits assumed)
MMP9, sequence (P14780 107-707 limits assumed): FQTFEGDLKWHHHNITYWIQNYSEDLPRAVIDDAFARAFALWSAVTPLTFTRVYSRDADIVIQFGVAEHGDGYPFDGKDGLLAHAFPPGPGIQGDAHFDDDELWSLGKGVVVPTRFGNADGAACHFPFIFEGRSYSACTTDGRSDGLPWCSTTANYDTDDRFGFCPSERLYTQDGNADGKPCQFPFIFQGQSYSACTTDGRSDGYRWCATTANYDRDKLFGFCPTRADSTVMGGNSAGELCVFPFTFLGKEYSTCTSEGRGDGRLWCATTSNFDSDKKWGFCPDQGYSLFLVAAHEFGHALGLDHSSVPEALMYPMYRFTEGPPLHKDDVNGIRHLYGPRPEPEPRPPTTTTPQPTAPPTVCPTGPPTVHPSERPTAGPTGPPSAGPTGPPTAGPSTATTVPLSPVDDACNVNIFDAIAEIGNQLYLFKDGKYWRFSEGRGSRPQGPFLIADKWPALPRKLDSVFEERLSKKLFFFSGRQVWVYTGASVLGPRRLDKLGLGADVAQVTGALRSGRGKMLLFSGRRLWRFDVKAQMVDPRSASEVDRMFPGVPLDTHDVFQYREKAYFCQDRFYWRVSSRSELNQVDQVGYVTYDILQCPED

[7] = molecular target: MMP3 (human, UniProt P08254 100-477, limits assumed)
MMP3, sequence (P08254 100-477 limits assumed): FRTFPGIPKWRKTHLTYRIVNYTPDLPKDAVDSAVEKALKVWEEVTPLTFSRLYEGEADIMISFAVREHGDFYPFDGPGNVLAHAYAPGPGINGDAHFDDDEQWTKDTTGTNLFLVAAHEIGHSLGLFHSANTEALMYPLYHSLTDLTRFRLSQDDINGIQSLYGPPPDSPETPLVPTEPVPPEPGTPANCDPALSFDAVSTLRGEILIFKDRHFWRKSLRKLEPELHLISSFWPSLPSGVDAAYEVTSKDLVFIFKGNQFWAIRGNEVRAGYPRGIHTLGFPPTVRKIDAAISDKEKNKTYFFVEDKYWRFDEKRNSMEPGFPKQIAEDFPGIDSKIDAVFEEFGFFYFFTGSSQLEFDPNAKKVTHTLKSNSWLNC

[8] = molecular target: Elastase
[9] = molecular target: T4, Cathepsin G
[10] = molecular target: T5, MMP7

Protease Inhibition (% of WT) [1] | Protease Inhibition (% of WT) [2] | Protease Inhibition (% of WT) [3] | Protease Inhibition (% of WT) [4] | Protease Inhibition (% of WT) [5] | Protease Inhibition (% of WT) [6] | Protease Inhibition (% of WT) [7] | Protease Inhibition (% of WT) [8] | Protease Inhibition (% of WT) [9] | Protease Inhibition (% of WT) [10] | Binder
154 % of WT | 91 % of WT | 82 % of WT | 117 % of WT | 58 % of WT | 53 % of WT | 38 % of WT | 86 % of WT | 83 % of WT | 102 % of WT | Variant A2M, bait region SEQ ID NO 18 (other) SVSGKPQYMVLVPSLLHTETTEKGCVLLSYLNETVTVSASLESVRGNRSLFTDLEAENDVLHCVAFAVPKSSSNEEVMFLTVQVKGPTQEFKKRTTVMVKNEDSLVFVQTDKSIYKPGQTVKFRVVSMDENFHPLNELIPLVYIQDPKGNRIAQWQSFQLEGGLKQFSFPLSSEPFQGSYKVVVQKKSGGRTEHPFTVEEFVLPKFEVQVTVPKIITILEEEMNVSVCGLYTYGKPVPGHVTVSICRKYSDASDCHGEDSQAFCEKFSGQLNSHGCFYQQVKTKVFQLKRKEYEMKLHTEAQIQEEGTVVELTGRQSSEITRTITKLSFVKVDSHFRQGIPFFGQVRLVDGKGVPIPNKVIFIRGNEANYYSNATTDEHGLVQFSINTTNVMGTSLTVRVNYKDRSPCYGYQWVSEEHEEAHHTAYLVFSPSKSFVHLEPMSHELPCGHTQTVQAHYILNGGTLLGLKKLSFYYLIMAKGGIVRTGTHGLLVKQEDMKGHFSISIPVKSDIAPVARLLIYAVLPTGDVIGDSAKYDVENCLANKVDLSFSPSQSLPASHAHLRVTAAPQSVCALRAVDQSVLLMKPDAELSASSVYNLLPEKDLTGFPGPLNDQDDEDCINRHNVYINGITYTPVSSTNEKDMYSFLEDMGLKAFTNSKIRKPKMCPQLEHGPIPENFYGLEGEGEGEGEAIPMSIPRYLTAEFRGVTVEEPHTKLRKYFPETWIWDLVVVNSAGVAEVGVTVPDTITEWKAGAFCLSEDAGLGISSTASLRAFQPFFVELTMPYSVIRGEAFTLKATVLNYLPKCIRVSVQLEASPAFLAVPVEKEQAPHCICANGRQTVSWAVTPKSLGNVNFTVSAEALESQELCGTEVPSVPEHGRKDTVIKPLLVEPEGLEKETTFNSLLCPSGGEVSEELSLKLPPNVVEESARASVSVLGDILGSAMQNTQNLLQMPYGCGEQNMVLFAPNIYVLDYLNETQQLTPEIKSKAIGYLNTGYQRQLNYKHYDGSYSTFGERYGRNQGNTWLTAFVLKTFAQARAYIFIDEAHITQALIWLSQRQKDNGCFRSSGSLLNNAIKGGVEDEVTLSAYITIALLEIPLTVTHPVVRNALFCLESAWKTAQEGDHGSHVYTKALLAYAFALAGNQDKRKEVLKSLNEEAVKKDNSVHWERPQKPKAPVGHFYEPQAPSAEVEMTSYVLLAYLTAQPAPTSEDLTSATNIVKWITKQQNAQGGFSSTQDTVVALHALSKYGAATFTRTGKAAQVTIQSSGTFSSKFQVDNNNRLLLQQVSLPELPGEYSMKVTGEGCVYLQTSLKYNILPEKEEFPFALGVQTLPQTCDEPKAHTSFQISLSVSYTGSRSASNMAIVDVKMVSGFIPLKPTVKMLERSNHVSRTEVSSNHVLIYLDKVSNQTLSLFFTVLQDVPVRDLKPAIVKVYDYYETDEFAIAEYNAPCSKDLGNADYKDDDDKGASHHHHHH
530 % of WT | 100 % of WT | 51 % of WT | 89 % of WT | 36 % of WT | 39 % of WT | 140 % of WT | 115 % of WT | 90 % of WT | 137 % of WT | Variant A2M, bait region SEQ ID NO 19 (other) SVSGKPQYMVLVPSLLHTETTEKGCVLLSYLNETVTVSASLESVRGNRSLFTDLEAENDVLHCVAFAVPKSSSNEEVMFLTVQVKGPTQEFKKRTTVMVKNEDSLVFVQTDKSIYKPGQTVKFRVVSMDENFHPLNELIPLVYIQDPKGNRIAQWQSFQLEGGLKQFSFPLSSEPFQGSYKVVVQKKSGGRTEHPFTVEEFVLPKFEVQVTVPKIITILEEEMNVSVCGLYTYGKPVPGHVTVSICRKYSDASDCHGEDSQAFCEKFSGQLNSHGCFYQQVKTKVFQLKRKEYEMKLHTEAQIQEEGTVVELTGRQSSEITRTITKLSFVKVDSHFRQGIPFFGQVRLVDGKGVPIPNKVIFIRGNEANYYSNATTDEHGLVQFSINTTNVMGTSLTVRVNYKDRSPCYGYQWVSEEHEEAHHTAYLVFSPSKSFVHLEPMSHELPCGHTQTVQAHYILNGGTLLGLKKLSFYYLIMAKGGIVRTGTHGLLVKQEDMKGHFSISIPVKSDIAPVARLLIYAVLPTGDVIGDSAKYDVENCLANKVDLSFSPSQSLPASHAHLRVTAAPQSVCALRAVDQSVLLMKPDAELSASSVYNLLPEKDLTGFPGPLNDQDDEDCINRHNVYINGITYTPVSSTNEKDMYSFLEDMGLKAFTNSKIRKPKMCPQLEHGPEGEGEGEFRGVTIPENFYGVSEDLVVQISELEGRGSVEEPHTKLRKYFPETWIWDLVVVNSAGVAEVGVTVPDTITEWKAGAFCLSEDAGLGISSTASLRAFQPFFVELTMPYSVIRGEAFTLKATVLNYLPKCIRVSVQLEASPAFLAVPVEKEQAPHCICANGRQTVSWAVTPKSLGNVNFTVSAEALESQELCGTEVPSVPEHGRKDTVIKPLLVEPEGLEKETTFNSLLCPSGGEVSEELSLKLPPNVVEESARASVSVLGDILGSAMQNTQNLLQMPYGCGEQNMVLFAPNIYVLDYLNETQQLTPEIKSKAIGYLNTGYQRQLNYKHYDGSYSTFGERYGRNQGNTWLTAFVLKTFAQARAYIFIDEAHITQALIWLSQRQKDNGCFRSSGSLLNNAIKGGVEDEVTLSAYITIALLEIPLTVTHPVVRNALFCLESAWKTAQEGDHGSHVYTKALLAYAFALAGNQDKRKEVLKSLNEEAVKKDNSVHWERPQKPKAPVGHFYEPQAPSAEVEMTSYVLLAYLTAQPAPTSEDLTSATNIVKWITKQQNAQGGFSSTQDTVVALHALSKYGAATFTRTGKAAQVTIQSSGTFSSKFQVDNNNRLLLQQVSLPELPGEYSMKVTGEGCVYLQTSLKYNILPEKEEFPFALGVQTLPQTCDEPKAHTSFQISLSVSYTGSRSASNMAIVDVKMVSGFIPLKPTVKMLERSNHVSRTEVSSNHVLIYLDKVSNQTLSLFFTVLQDVPVRDLKPAIVKVYDYYETDEFAIAEYNAPCSKDLGNADYKDDDDKGASHHHHHH
